In US12508311B2, “Fusion protein, and preparation method and use thereof” (SUN YAT-SEN UNIVERSITY, priority 2021, dated 2025):
No end group written: not given here.

Tests used:
[1] = system: normal human intestinal epithelial cells FHC; assay: Effect of gefitinib on normal cells (FHC control in CCK-8 / clone formation); assay type: cell-based; settings: gefitinib 4 μM
Excerpt: • (1) The colorectal cancer cells HT29 (KRas wt) and HCT116 (KRas G13D) in the logarithmic growth phase and the normal human intestinal epithelial cells FHC were digested with pancreatin and then prepared into a single cell suspension, and the cells were evenly inoculated in a 12-well plate by 500 cells per well. […] Cell culture solution was replaced every other 1-2 days, and the culture was stopped until cell clones (more than 50 cells were considered as one clone) were seen under a light microscope. • (3) After the supernatant of each group was discarded, the cells were washed twice with the PBS buffer solution, and dried in air. A proper amount of methanol stationary liquid was added into each well for cell fixation for 15 minutes, and residual stationary liquid in the well was washed off with PBS solution, and dried in air. A proper amount of crystal violet staining solution was added into each well for cell staining for 15 minutes, and residual staining solution in the well was washed off with PBS solution, and dried in air. The cell clones seen in the auxiliary wells of each group were counted under an inverted microscope and the number of the clones was calculated. • (4) Statistical analysis was carried out by using GraphPad Prism8 software, and one way anova was used to compare means of multiple groups. The difference was statistically significant when P<0.05.

[2] = system: tumors derived from the KRas mutant-type HCT116 cells; assay: In vivo Cy5 imaging of tumor targeting, HCT116 tumors; design: species or system mice; settings: tail vein 60 μM, 100 μL, 2.5 hours, compared with Cy5 single molecule
Excerpt: (§1) • (1) 10 female Balb/c nude mice aged 4 weeks to 5 weeks (Guangdong Laboratory Animal Center) were purchased, and then 500,000 HT29cells and 500,000 HCT116 cells were subcutaneously injected into left and right sides of the mice respectively. One week later, the mice were divided into two groups, with five mice in each group, which were the experimental group and the control group respectively. Raising and experiment of the mice were both carried out in the Laboratory Animal Center of Sun Yat-sen University, and all the operations were in accordance with the management method of laboratory animals of Sun Yat-sen University and complied with the animal ethical rules. • (2) The TKD-Cy5 molecule and the Cy5 single molecule constructed above were injected into the mice by tail vein at a concentration of 60 μM and a volume of 100 μL, wherein the TKD-Cy5 injection group was the experimental group and the Cy5 single molecule injection group was the control group. • (3) After 2.5 hours of tail vein injection, the mice were anesthetized with isoflurane. Cy5 imaging detection was conducted by using IVIS Lumina (PerkinElmer), with a fluorescence detection form of fluorescence. • (4) Experimental results were shown in FIG. 15.

[3] = system: tumors derived from the KRas wild-type cells HT29; assay: In vivo Cy5 imaging of tumor targeting, HT29 tumors; design: species or system mice; settings: tail vein 60 μM, 100 μL, 2.5 hours, compared with Cy5 single molecule
Excerpt: as §1

[4] = In vivo Cy5 imaging, other tissues and organs; design: species or system mice; settings: tail vein 60 μM, 100 μL; 2.5 hours
Excerpt: as §1

COc1cc2ncnc(Nc3ccc(F)c(Cl)c3)c2cc1OCCCN1CCOCC1 [gefitinib]
toxic and side effects on normal cells [1]: could not cause toxic and side effects on normal cells

TKD-Cy5: TKD molecules labeled with fluorescent dye Cy5 to form TKD-Cy5 covalent conjugates (TKDNNLLGRFELSG; also: Cy5 dye conjugate, site not given here; UniProt P0DMV8 450-463, looked up, fragment)
aggregation in tumors (Cy5 imaging) [2]: could aggregate in tumors
aggregation in tumors (Cy5 imaging) [3]: could aggregate in tumors
targeting of other tissues and organs (Cy5 imaging) [4]: except bladder retention caused by metabolism in vivo as in the control group, TKD-Cy5 could not target other tissues and organs of the mice
